Consider one substance from US20090280128A1.

The target of assay [1] is C-FLAG ILT7 (human ILT7 with FLAG tag at the C terminus, co-expressed with Myc-FcRγ) (human) (UniProt P59901). As to the kind of experiment: flow cytometry on ILT7-CHO cells, control antibody, APC-labeled goat anti-mouse IgG.
For assay [2] the target is unchanged. As to the kind of experiment: flow cytometry on ILT7-CHO cells, control antibody, APC goat anti-mouse IgG then FITC donkey anti-goat IgG. Background: A flow cytometer gives signals particle by particle.

Chain of C-FLAG ILT7 (human ILT7 with FLAG tag at the C terminus, co-expressed with Myc-FcRγ) (human) (P59901 other isoform, or with tags, fused parts or gaps): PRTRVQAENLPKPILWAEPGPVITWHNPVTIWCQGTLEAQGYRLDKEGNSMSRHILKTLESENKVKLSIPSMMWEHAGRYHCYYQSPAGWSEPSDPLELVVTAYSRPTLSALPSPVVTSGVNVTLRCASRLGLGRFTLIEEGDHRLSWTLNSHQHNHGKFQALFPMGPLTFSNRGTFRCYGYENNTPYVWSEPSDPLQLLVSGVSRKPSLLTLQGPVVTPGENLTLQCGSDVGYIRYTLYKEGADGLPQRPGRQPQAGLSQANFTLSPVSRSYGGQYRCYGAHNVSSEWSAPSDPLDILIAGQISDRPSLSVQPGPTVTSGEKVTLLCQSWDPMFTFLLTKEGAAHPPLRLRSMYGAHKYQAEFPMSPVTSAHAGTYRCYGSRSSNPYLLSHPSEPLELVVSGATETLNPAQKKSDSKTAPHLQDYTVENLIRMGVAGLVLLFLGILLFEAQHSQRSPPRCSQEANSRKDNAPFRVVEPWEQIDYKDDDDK

In assay [1], Mouse IgG2a (antibody) gave an APC mean fluorescence intensity, incubation at 4 °C of 3 and an APC mean fluorescence intensity, incubation at 37 °C of 3.64. For the same substance, in assay [2], the FITC mean fluorescence intensity, incubation at 4 °C came out at 3.7 and the FITC mean fluorescence intensity, incubation at 37 °C came to 4.2.
